Laboratory results taken from patent publication US20110064668A1.

Key:
Kv1.6 channel = test: cell-based or functional assay
[1] = target: α3β4 subtype of rat neuronal nAChR (rat), P04757; test: cell-based or functional assay
α3β4 subtype of rat neuronal nAChR (rat), P04757, sequence (P04757 26-499, chain 1 of 2): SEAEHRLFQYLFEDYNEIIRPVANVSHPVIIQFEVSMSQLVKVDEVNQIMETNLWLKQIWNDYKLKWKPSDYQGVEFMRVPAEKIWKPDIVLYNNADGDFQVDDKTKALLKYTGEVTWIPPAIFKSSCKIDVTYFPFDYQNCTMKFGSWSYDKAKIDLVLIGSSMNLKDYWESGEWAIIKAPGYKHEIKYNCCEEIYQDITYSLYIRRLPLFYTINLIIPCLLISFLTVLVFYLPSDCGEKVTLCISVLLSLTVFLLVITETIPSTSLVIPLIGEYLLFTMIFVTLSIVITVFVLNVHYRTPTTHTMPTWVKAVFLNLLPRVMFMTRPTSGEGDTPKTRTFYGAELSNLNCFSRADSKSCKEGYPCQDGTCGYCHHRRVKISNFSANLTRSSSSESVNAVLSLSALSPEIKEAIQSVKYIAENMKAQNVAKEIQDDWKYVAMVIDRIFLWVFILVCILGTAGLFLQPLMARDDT
α3β4 subtype of rat neuronal nAChR (rat), P04757, sequence (P12392 21-495, chain 2 of 2, further chain): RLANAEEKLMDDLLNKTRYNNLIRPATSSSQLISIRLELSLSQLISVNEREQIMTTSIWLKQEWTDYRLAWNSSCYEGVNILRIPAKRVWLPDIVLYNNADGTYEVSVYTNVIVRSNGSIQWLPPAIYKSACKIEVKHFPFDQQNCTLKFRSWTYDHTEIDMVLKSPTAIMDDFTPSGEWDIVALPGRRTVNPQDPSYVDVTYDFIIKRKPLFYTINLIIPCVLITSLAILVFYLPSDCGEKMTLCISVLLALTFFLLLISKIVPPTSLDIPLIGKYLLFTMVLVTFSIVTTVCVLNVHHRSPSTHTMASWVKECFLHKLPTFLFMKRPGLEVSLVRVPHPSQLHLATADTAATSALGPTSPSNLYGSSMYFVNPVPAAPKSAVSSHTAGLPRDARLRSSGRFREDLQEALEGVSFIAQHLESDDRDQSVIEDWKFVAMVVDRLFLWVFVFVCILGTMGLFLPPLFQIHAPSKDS

FPRPRICNLACRAGIGHKYPFCHCR (modifications not checked) [conotoxin pl14a]
IC50, µM (vitelline membrane retained) (Kv1.6 channel): 3.12 µM | IC50 for the block of Kv1.6 currents (vitelline membrane removed) (Kv1.6 channel): 1.59 µM | IC50 in α3β4 (nM), block of ACh-elicited current in oocytes [1]: 8700 nM
